Columns and labels:
[1] = target: T1, human ICOS on human T cells (human, UniProt Q9Y6W8 21-167); test: flow cytometry, activated human CD8 T cells, FITC MFI, donor 1124F36
T1 construct: endogenous receptor on primary cells; also called ICOS on CD4+ and CD8+ T cells of healthy human donors
T1 sequence: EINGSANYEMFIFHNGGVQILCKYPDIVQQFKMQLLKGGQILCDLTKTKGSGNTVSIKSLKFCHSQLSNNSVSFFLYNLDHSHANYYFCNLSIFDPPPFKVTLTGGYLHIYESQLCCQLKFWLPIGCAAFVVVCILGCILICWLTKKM
Method: (§1) Binding of H2L5 hIgG4PE was assessed in both naive and activated CD3+ T cells.
(§2) Either naive and/or activated CD3+ T cells were re-suspended in PBS with 0.1% BSA (FACS Buffer) containing Human FcR Blocking Solution at 2×10⁶ cells/mL (5 μl FcR Blocking Solution+[…] FACS Buffer per 1 mL). At a concentration of 2×10⁵ cells/well, 100 μl cells were placed into 2 mL 96 well Assay Blocks and incubated at room temperature for 15 minutes. During the incubation, a titration of the binding antibodies, anti-ICOS (H2L5 hIgG4PE) or IgG4 Isotype Control antibody was prepared as a 2× concentration. […] Following the binding incubation, cells were washed twice in 1 mL of FACS buffer, centrifuging at 400×g for 5 minutes at room temperature.
(§3) Data acquisition and compensation were performed on BD FACS instruments, LSR Fortessa X-20 or FACS Canto II using BD Diva (ver. 8.0) software. Data analysis employed Flow Jo software (ver.10.0.8r1). Results are reported as both MFI (Median Fluorescence Intensity) and Percent of cells positive for human IgG kappa light chain FITC staining out of the total live cells or appropriate parent population. EC50s were determined using Graphpad Prism 5 software (ver. 5.04) with non-linear regression of transformed data (X=(log(X)) using a variable slope with 4 parameters (log(Agonist) vs. response—Variable slope).

[2] = target: T1, human ICOS on human T cells; test: flow cytometry, activated human CD8 T cells, FITC MFI, mean of donors
Method: as §1, §2, §3

[3] = target: T1, human ICOS on human T cells; test: flow cytometry, activated human CD4 T cells, FITC MFI, median of donors
Method: as §1, §2, §3

[4] = target: T1, human ICOS on human T cells; test: flow cytometry, activated human CD4 T cells, percent FITC positive, donor 1123F59
Method: as §1, §2, §3

[5] = target: T1, human ICOS on human T cells; test: flow cytometry, activated human CD4 T cells, percent FITC positive, donor 1124F36
Method: as §1, §2, §3

[6] = target: T1, human ICOS on human T cells; test: flow cytometry, activated human CD8 T cells, percent FITC positive, donor 2100M39
Method: as §2, §3

[7] = target: T1, human ICOS on human T cells; test: flow cytometry, activated human CD4 T cells, percent FITC positive, mean of donors
Method: as §1, §2, §3

[8] = target: T1, human ICOS on human T cells; test: flow cytometry, activated human CD4 T cells, percent FITC positive, median of donors
Method: as §1, §2, §3

Human ICOS -Fc = target: T2, Human ICOS -Fc (human; rabbit, UniProt Q9Y6W8 21-140); test: SPR, BIAcore T200; antibody captured on anti-human IgG (CM5), ICOS (rabbit Fc) as analyte at 1-256 nM, 25°C, 1:1 model
T2 construct: analyte in the BIAcore T200 run; also called Human ICOS (rabbit Fc); not shown: rabbit Fc
T2 sequence: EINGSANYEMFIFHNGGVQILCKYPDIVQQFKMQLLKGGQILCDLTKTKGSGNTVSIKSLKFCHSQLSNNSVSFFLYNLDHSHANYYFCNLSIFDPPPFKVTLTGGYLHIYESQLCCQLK
Method: (§4) The binding kinetics affinity of the humanized H2L5 hIgG4PE antibody was determined used the BIAcore T200 Anti-human IgG on Fc2 of a CM5 chip Anti-ICOS H2L5 hIgG4PE captured on the surface. Anti-human IgG surface blocked with […] hIgG1 control to prevent non-specific binding of rabbit Fc. Human and cyno ICOS (rabbit Fc) passed over the captured antibodies at 256 nM, 64 nM, 16 nM, 4 nM and 1 nM. Buffer alone was used to double reference binding curves. MgCl₂ was used to regenerate surface. Run carried out at 25° C. Data fitted to 1:1 model using T200 evaluation software. Antibody concentration: 2.5 μg/mL
(§5) The ICOS binding data was fitted to a 1:1 kinetics model using the T200 data analysis software.

Cyno ICOS-Fc = target: T3, Cyno ICOS-Fc (cynomolgus; rabbit, UniProt A0A2K5TQR6 21-140); test: as above
T3 construct: analyte in the BIAcore T200 run; also called cyno ICOS (rabbit Fc); cynomolgus ICOS; not shown: Rabbit Fc and any linker
T3 sequence: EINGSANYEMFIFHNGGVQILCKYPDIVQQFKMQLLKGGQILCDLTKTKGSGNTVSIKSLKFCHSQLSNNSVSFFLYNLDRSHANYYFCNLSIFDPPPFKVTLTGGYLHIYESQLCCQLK
Method: as §4, §5

EC50 [1]: 0.564 µg/mL | EC50 [2]: 0.525 µg/mL | EC50 [3]: 1.04 µg/mL | EC50 [4]: 0.853 µg/mL | EC50 [5]: 0.45 µg/mL | EC50 [6]: 1.23 µg/mL | EC50 [7]: 0.763 µg/mL | EC50 [8]: 0.834 µg/mL | Kd (Human ICOS -Fc): 1.34 nM | koff (Human ICOS -Fc): 0.000396 s⁻¹ | kon (Human ICOS -Fc): 297000 M⁻¹ s⁻¹ | Kd (Cyno ICOS-Fc): 0.949 nM | koff (Cyno ICOS-Fc): 0.000371 s⁻¹ | kon (Cyno ICOS-Fc): 391000 M⁻¹ s⁻¹
B1: H2L5 hIgG4PE (antibody)
heavy: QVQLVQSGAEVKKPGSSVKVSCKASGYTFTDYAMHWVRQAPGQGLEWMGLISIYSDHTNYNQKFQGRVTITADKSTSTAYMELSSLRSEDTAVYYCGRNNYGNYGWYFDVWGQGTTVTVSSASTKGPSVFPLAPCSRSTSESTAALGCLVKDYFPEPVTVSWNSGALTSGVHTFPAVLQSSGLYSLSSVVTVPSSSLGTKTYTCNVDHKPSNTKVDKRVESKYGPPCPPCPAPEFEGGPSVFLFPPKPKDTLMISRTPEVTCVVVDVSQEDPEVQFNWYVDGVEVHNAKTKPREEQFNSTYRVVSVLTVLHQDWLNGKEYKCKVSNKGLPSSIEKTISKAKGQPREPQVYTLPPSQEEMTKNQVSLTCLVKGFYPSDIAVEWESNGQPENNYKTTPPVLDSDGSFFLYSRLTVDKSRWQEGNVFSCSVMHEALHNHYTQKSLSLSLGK
light: EIVLTQSPATLSLSPGERATLSCSASSSVSYMHWYQQKPGQAPRLLIYDTSKLASGIPARFSGSGSGTDYTLTISSLEPEDFAVYYCFQGSGYPYTFGQGTKLEIKRTVAAPSVFIFPPSDEQLKSGTASVVCLLNNFYPREAKVQWKVDNALQSGNSQESVTEQDSKDSTYSLSSTLTLSKADYEKHKVYACEVTHQGLSSPVTKSFNRGEC
notes: also called 422 H2L5 hIgG4PE; H2L5 IgG4PE; copies: 2 + 2
